Results reported in patent publication US20240368239A1, “Novel bispecific protein and use thereof” (SL METAGEN, priority 2020, published 2024).

What was measured:
[1] = target: human GLP-2 receptor (human) (UniProt O95838); assay: cell-based or functional assay
GLP-1 receptor = assay: cell-based or functional assay

Sequence of human GLP-2 receptor (human) (O95838 whole entry): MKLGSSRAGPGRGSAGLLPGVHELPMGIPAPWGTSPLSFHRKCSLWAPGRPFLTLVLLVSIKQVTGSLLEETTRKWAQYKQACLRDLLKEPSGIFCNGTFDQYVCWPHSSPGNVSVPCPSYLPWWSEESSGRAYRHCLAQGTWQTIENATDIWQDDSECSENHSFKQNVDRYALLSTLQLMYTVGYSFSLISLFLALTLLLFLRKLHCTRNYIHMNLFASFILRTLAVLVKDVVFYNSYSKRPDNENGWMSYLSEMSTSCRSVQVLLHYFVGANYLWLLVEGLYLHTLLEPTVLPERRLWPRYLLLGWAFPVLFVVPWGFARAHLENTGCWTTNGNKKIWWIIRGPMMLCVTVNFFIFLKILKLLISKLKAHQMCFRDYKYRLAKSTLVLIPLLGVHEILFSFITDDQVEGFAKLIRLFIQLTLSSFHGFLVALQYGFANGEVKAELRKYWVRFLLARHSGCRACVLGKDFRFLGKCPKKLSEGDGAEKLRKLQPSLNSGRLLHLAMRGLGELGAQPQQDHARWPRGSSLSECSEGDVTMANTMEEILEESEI

Row | EC50 (nM), cAMP-gated CNG channel membrane potential dye fluorescence (Ft/F0) in Human GLP2R ACTOne cells [1] | vs. GLP-2 relative activity (%) [1] | EC50 (pM), cAMP luciferase reporter in GLP1R cAMP/luc cells (GLP-1 receptor) | vs. GLP-1 relative activity (%) (GLP-1 receptor) | Substance
1 | 0.58 nM | 100% |  |  | native GLP-2 peptide (from UniProt P01275 146-178)
2 |  |  | 26 pM | 100% | native GLP-1 peptide (from UniProt P01275 98-127)
